The target of one data set is EndA(H160G/R209A/K210A) (Streptococcus pneumoniae, UniProt P0A3S3 31-274, H160G;R209A;K210A). Description: EMSA. On the technique in general: A gel shift assay detects complexes by their altered migration in electrophoresis.
A further data set deals with EndA(H160G/R127A/K128A) (Streptococcus pneumoniae, UniProt P0A3S3 31-274, H160G;R127A;K128A). Description: EMSA.

B1: 24 bp duplex (dsDNA)
DNA 1: GCAAGGTGCGTGCAGCCTTGGACC
DNA 2: GGTCCAAGGCTGCACGCACCTTGC
Regarding B1, the binding result with EndA(H160G/R209A/K210A) and with EndA(H160G/R127A/K128A) was “no binding” throughout.

The values are drawn from article PMC3074123.
